Experimental data taken from patent publication US20210079111A1 (ABCYTE THERAPEUTICS, published 2021).
One block for each molecule: values may come before it.

How the values were obtained:
[1] = molecular target: CD19 CAR chain of CD19 CAR-mIL7 (CAR-1-CD19/CAR-2-IL-7, plasmid PC035), on transduced T cells; assay: flow cytometry, CD19 CAR-mIL7 T cells stained with Protein L
[2] = molecular target: T1, CD20 on CD20 positive cells (Raji, Nalm-6) (UniProt P11836 1-297, limits assumed); assay: cell-based or functional assay
T1 sequence (looked up): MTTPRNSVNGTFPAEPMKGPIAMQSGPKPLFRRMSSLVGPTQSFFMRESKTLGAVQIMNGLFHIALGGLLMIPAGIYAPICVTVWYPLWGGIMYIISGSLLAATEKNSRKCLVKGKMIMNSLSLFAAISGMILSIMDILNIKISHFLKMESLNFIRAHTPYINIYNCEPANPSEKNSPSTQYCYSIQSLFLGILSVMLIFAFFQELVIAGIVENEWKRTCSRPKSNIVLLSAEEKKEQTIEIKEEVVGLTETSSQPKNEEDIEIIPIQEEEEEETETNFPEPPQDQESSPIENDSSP

[3] = molecular target: T2, CD19 on CD19 positive cells (Raji, Nalm-6) (human, UniProt P15391 20-556); assay: cell-based or functional assay
T2 sequence (looked up): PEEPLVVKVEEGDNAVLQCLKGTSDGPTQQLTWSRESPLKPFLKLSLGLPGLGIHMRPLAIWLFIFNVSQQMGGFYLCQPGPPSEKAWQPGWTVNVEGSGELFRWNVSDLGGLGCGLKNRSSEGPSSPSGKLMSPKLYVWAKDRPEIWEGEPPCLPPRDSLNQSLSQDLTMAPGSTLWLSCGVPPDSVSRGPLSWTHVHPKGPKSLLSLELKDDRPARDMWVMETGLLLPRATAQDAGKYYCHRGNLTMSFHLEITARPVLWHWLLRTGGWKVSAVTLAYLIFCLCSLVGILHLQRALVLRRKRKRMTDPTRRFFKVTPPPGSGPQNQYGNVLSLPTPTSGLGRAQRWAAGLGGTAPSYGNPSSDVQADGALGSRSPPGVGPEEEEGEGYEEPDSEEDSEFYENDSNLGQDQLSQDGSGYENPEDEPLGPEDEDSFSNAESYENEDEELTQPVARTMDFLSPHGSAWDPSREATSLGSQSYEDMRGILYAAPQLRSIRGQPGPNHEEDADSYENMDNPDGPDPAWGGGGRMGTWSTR

percent positive cells [1]: 49%
Molecule: Protein L

B1: CAR-1-CD20 (full humanized anti-CD20 single CAR), on transduced T cells (other)
chain: EIVLTQSPATLSLSPGERATMTCRASSSVNYMDWYQQKPGQAPRPWIYATSNLASGVPARFSGSGSGTDFTLTISSLEPEDFAVYYCQQWSFNPPTFGGGTKVEIKGSTSGGGSGGGSGGGGSSQVQLVQSGAEVKKPGASVKVSCKASGYTFTSYNMHWVRQAPGQGLEWIGAIYPGNGDTSYNQKFKGKATLTRDTSTSTVYMELSSLRSEDTAVYYCARSNYYGSSYWFFDVWGQGTTVTVSSTTTPAPRPPTPAPTIASQPLSLRPEACRPAAGGAVHTRGLDFACDFWLPIGCAAFVVVCILGCILICWLTKKKYSSSVHDPNGEYMFMRAVNTAKKSRLTDVTLRVKFSRSADAPAYKQGQNQLYNELNLGRREEYDVLDKRRGRDPEMGGKPRRKNPQEGLYNELQKDKMAEAYSEIGMKGERRRGKGHDGLYQGLSTATKDTYDALHMQALPPR
target cell killing at E/T ratio at 10:1, 4 h, Raji and Nalm-6 co-culture (flow cytometry, CFSE/Annexin/PI) [2]: > 80%

B2: CAR-1-CD19 (full humanized anti-CD19 single CAR), on transduced T cells (other)
chain: DIQMTQSPSSLSASVGDRVTITCRASQDISKYLNWYQQKPGKAPKLLIYHTSRLHSGVPSRFSGSGSGTDYTLTISSLQPEDFATYYCQQGNTLPYTFGGGTKVEIKGSTSGGGSGGGSGGGGSSQVQLQESGPGLVKPSQTLSLTCTVSGVSLPDYGVSWIRQPPGKGLEWLGVIWGSETTYYNSALKSRLTISRDNSKNTLYLQMNSLRAEDTAVYYCAKHYYYGGSYAMDYWGQGTTVTVSSTTTPAPRPPTPAPTIASQPLSLRPEACRPAAGGAVHTRGLDFACDFWLPIGCAAFVVVCILGCILICWLTKKKYSSSVHDPNGEYMFMRAVNTAKKSRLTDVTLRVKFSRSADAPAYKQGQNQLYNELNLGRREEYDVLDKRRGRDPEMGGKPRRKNPQEGLYNELQKDKMAEAYSEIGMKGERRRGKGHDGLYQGLSTATKDTYDALHMQALPPR
target cell killing at E/T ratio at 10:1, 4 h, Raji and Nalm-6 co-culture (flow cytometry, CFSE/Annexin/PI) [3]: > 90%
